Reference: patent publication US20090191187A1

target: human interleukin-1 receptor on cells (MRC-5 human embryonic lung fibroblasts; human blood cells) (human) (UniProt P14778); experiment: cell-based or functional assay
Sequence (P14778 18-569): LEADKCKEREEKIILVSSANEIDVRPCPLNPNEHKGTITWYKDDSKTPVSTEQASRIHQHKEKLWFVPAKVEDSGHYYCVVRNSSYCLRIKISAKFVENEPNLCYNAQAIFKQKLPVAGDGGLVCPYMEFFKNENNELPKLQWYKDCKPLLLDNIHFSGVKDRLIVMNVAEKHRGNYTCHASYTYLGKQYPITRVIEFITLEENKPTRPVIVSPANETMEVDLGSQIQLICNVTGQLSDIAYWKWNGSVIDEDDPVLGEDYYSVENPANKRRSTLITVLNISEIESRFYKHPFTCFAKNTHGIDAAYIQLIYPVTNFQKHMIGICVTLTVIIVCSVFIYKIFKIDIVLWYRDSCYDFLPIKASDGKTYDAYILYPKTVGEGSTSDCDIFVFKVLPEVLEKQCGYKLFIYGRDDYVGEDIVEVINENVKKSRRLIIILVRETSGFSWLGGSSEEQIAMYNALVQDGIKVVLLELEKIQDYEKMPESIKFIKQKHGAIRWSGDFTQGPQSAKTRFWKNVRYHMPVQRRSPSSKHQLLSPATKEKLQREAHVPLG

IC-50 (MRC-5 bioassay)	Substance
> 100 ng/mL	Antigenix Cat.# MC260020, clone R11 (antibody)
> 100 ng/mL	Antigenix Cat.# MC261020, clone R12 (antibody)
> 100 ng/mL	BD Pharmingen Cat.# 551388, clone HIL1R-M1 (antibody)
> 100 ng/mL	Biotrend Cat.# 0100-0242, clone 49/20 (antibody)
> 100 ng/mL	Cell Sciences Cat.# CM2028, clone RMHL-1 (antibody)
33 ng/mL	PBL Biomedical Laboratories Cat.# 21808-1, clone RMH1R-1 (antibody)
> 100 ng/mL	PBL Biomedical Laboratories Cat.# 21809-1, clone RMH1R-2 (antibody)
> 100 ng/mL	R&D Systems Cat.# MAB269, clone 35730 (antibody)
